Experimental data reported in article PMC11046469, “Leveraging a Phage-Encoded Noncanonical Amino Acid: A Novel Pathway to Potent and Selective Epigenetic Reader Protein Inhibitors” (ACS Central Science, 2024).
Like-named read-outs stand apart in the source and are kept apart here. Where a SMILES comes first, the peptide text is derived from it. Where no end group is shown, it is not given here. The star is where a group is joined. 2Furoyl = O=C(c1ccco1)*; Butyryl = CCCC(=O)*

Tests used:
[1] = molecular target: T1, NanoLuc-ENL YEATS expressed in HEK293T cells (Homo sapiens, UniProt Q03111); test: ENL-NanoBRET cellular target engagement assay with tracer SR-0813T; type: cell-based
T1 construct: The complementary DNA encoding ENL YEATS (aa 1-148) was cloned into pCDH-EF1-Nluc; expressed in transfected cells
T1 sequence (Q03111 1-148): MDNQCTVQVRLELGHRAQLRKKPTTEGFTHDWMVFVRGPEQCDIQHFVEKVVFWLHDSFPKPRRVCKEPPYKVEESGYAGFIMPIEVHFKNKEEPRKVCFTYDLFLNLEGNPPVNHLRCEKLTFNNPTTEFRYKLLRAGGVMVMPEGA
Description: For peptides developed for intracellular targets, a common concern is their cellular permeability to engage the targets. For the ENL YEATS domain that is a nuclear protein, its inhibitors will also need to translocate to the nucleus to exert their inhibition activities. […] We attached FITC to tENL-S1o to afford FITC-tENL-S1o that could be fluorescently imaged. […] Although results from this pilot study were very encouraging, the conjugated FITC could have assisted the cellular penetration process. A more accurate assay was needed for the use of unmodified peptides. In light of this, we proceeded to use a NanoBRET assay to evaluate whether our developed peptides could permeate into cells and engage the ENL YEATS domain in the cellular melieu.[46] The NanoBRET assay is an emerging cutting-edge technique that is robust and sensitive in assessing not just cellular permeability of a developed ligand but also the ligand engagement with its protein target in the cellular environment. A significant advantage of the NanoBRET assay over the fluorophore conjugation and other approaches is allowing intact ligands to be used. […] There are three components required to gauge the peptide inhibitory potency for ENL expressed in cells through NanoBRET assays: (1) an ENL YEATS-NanoLuc luciferase fusion protein, (2) a NanoLuc luciferase substrate, and (3) a fluorescent tracer that binds specifically and reversibly to the reader channel of ENL YEATS. […] The cellular potency of peptides can be determined through the decrease in BRET as test peptides engage the ENL YEATS domain and displace the tracer. […]
Meanwhile, we established a stable cell line for NanoLuc-ENL YEATS expression. The binding of SR-0813T to […] was also validated using a fluorescence polarization assay (Figure S16).
Using the developed ENL-NanoBRET assay, we then characterized the cellular potency of our developed peptidyl inhibitors. […] The apparent intracellular affinity of tENL-S1f was further evaluated by NanoBRET at various tracer concentrations (Figure 5D). […]
Fluorescence microscopy study with FITC-6AHX-tENL-S1o: […]

[2] = molecular target: T2, ENL YEATS domain (His-ENL) (Homo sapiens, UniProt Q03111); test: Biolayer interferometry (BLI) binding to ENL YEATS; conditions: ratio KD,AF9 / KD,ENL
T2 construct: (aa 1−148) was cloned in pET19b; made in house; host or cells: E. coli BL21(DE3pLysS)
T2 sequence (Q03111 1-148): T1 sequence (Q03111 1-148)
Description: To test the inhibition potency of the two selected peptides for the ENL YEATS domain, ENL-S1 and ENL-S2 were chemically synthesized through solid-phase peptide synthesis (SPPS) and evaluated by an AlphaScreen assay. In this assay, a biotinylated H3K27cr peptide and a 6xHis-tagged ENL YEATS domain (His-ENL YEATS) were immobilized on PerkinElmer streptavidin donor and nickel-chelating (Ni-NTA) acceptor beads, respectively. The use of a His-ENL YEATS instead of the original AviSUMO-ENL YEATS construct in the assay prevents potential false positive results derived from ligands which bind to the SUMO protein but not to the ENL YEATS domain. […] We then assessed the binding affinity of two ligands for the ENL YEATS domain using biolayer interferometry (BLI). Briefly, His-ENL was immobilized onto Ni-NTA functionalized biosensors to measure the binding kinetics of target peptides at different concentrations. […] As a small peptide directly selected from a phage display library, this level of high potency was unexpected. […] However, shorter-than-10-mer linear peptides with nanomolar binding potency have rarely been directly selected from phage display libraries. One example was S2P03, a 7-mer peptide that has a KD value as 49 ± 9 nM to bind to SIRT2.[10] This peptide contained BuK and was identified also from a BuK-containing phage display library using the active site-directed ligand selection technique. Taken together, the two examples confirmed that utilizing phage display libraries incorporated with a ncAA serving as a ligand for a protein target for active site-directed ligand selection is a successful method for identifying ultrahigh potency ligands for epigenetic proteins including both enzymes and readers. For ENL-S1 and ENL-S2, their determined kon and koff values were 6.23 ± 0.07 × 10^4 M^–1 s^–1, […] and […], 5.54 ± 0.02 × 10^–3 s^–1, respectively. Compared to ENL-S2, ENL-S1 has faster binding to the ENL YEATS domain and slower release from it, indicating its potential long-term action on the ENL YEATS inhibition. […]
Biolayer Interferometry to Validate ENL Ligands:
His-ENL, His-AF9 (aa 1-149, EpiCypher), His-GAS41 (aa 15-160, EpiCypher), and YEATS2-His (aa 200-345, EpiCypher) were reconstituted in water and diluted into assay buffer (20mM Tris, 300 mM NaCl, pH 7.9) for immobilization onto Octet Ni-NTA biosensors (Sartorius). Lyophilized peptides were dissolved in DMF and diluted to designated concentrations in assay buffer. Biolayer interferometry assays were performed in 96 well plates (GreinerBio-One, polypropylene, flat-bottom) using an Octet Red96 System (Sartorius). Wells were filled with 200 μL of assay buffer, blocking buffer (assay buffer + 0.1% BSA), protein solution, peptide solution, regeneration solution, and reload solution. For immobilization, His-tagged proteins were immobilized onto Ni-NTA sensors at 20 for 600 s. Sensors were then dipped into blocking buffer for 180 s, assay […] buffer for 300 s, peptide solution for 300 s, and back to assay buffer for 300 s. If multiple samples were tested, Ni-NTA sensors can be reconditioned in regeneration (10 mM glycine, pH 1.7) solution followed by reload solution (10 mM NiCl2) for 30 and 60 s, respectively. Measurements were carried out at 30 °C. Data were analyzed within the ForteBio Data Analysis software. Data were processed by double subtracting ligand only and protein only reference wells and aligning the data to the beginning of the association. Then, global kinetic fit was performed for all sensogram curves with a 1:1 model. Steady state KD values were reported.
AlphaScreen Assay with Biotinylated-ENL-S1:
The AlphaScreen assay was carried out in 384-well plates. Manual assay setup was performed in a 40 uL reaction buffer (50 mM HEPES pH 7.4, 100 mM NaCl, 0.1% bovine serum albumin, and 0.05% CHAPS). 10 µL of varying concentrations of His-ENL YEATS (0-300 nM) and 10 µL of […]

AF9 YEATS domain [3] = molecular target: T3, AF9 YEATS domain (human, UniProt P42568 1-138); test: AlphaScreen or HTRF; competition: AF9 YEATS and its corresponding acylated histone peptide; test peptide varied; n = 3
T3 chain: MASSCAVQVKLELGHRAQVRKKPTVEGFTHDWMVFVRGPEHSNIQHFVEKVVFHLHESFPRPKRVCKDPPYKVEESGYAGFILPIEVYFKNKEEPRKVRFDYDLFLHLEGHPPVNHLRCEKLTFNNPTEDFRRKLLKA

[4] = molecular target: T4, 6xHis-tagged ENL YEATS domain (human, UniProt Q03111 1-148); test: AlphaScreen or HTRF; competition: biotinylated H3K27cr peptide on streptavidin donor beads, His-ENL YEATS on nickel-chelating (Ni-NTA) acceptor beads; test peptide varied; n = 3
T4 chain: T1 sequence (Q03111 1-148)

AF9 YEATS domain [5] = molecular target: T3, AF9 YEATS domain
[6] = molecular target: T4, 6xHis-tagged ENL YEATS domain; test: BLI; His-ENL immobilised on Ni-NTA biosensors, peptides in solution at different concentrations (set-up told for ENL YEATS; the other YEATS domains were analysed 'similarly')
[7] = molecular target: T4, 6xHis-tagged ENL YEATS domain; test: BLI
AF9 YEATS domain [8] = molecular target: T3, AF9 YEATS domain; test: BLI
[9] = molecular target: T4, 6xHis-tagged ENL YEATS domain
AF9 YEATS domain [10] = molecular target: T3, AF9 YEATS domain; test: BLI; His-ENL immobilised on Ni-NTA biosensors, peptides in solution at different concentrations (set-up told for ENL YEATS; the other YEATS domains were analysed 'similarly')

## CC(=O)N[C@H](C(=O)N[C@@H](Cc1ccc(O)cc1)C(=O)N[C@@H](CS)C(=O)N[C@@H](Cc1ccc(O)cc1)C(=O)N[C@@H](CCCCNC(=O)c1ccco1)C(N)=O)C(C)C [tENL-S1f] (Ac-VYCYK(2Furoyl)-NH2)
[1]; 0.5 μM SR-0813T tracer, read-out: NanoBRET IC50
  IC50: 4100 ± 1100 nM
[1]; 1.0 μM SR-0813T tracer, read-out: NanoBRET IC50
  IC50: 4200 ± 1100 nM
[1]; 2.5 μM SR-0813T tracer, read-out: NanoBRET IC50, displacement of SR-0813T from NanoLuc-ENL
  IC50: 6400 ± 1600 nM
[2]
  Selectivity (ENL:AF9) from BLI KD values: 12.0 fold

## YDVYCYK(Butyryl) [ENL-S1]
AF9 YEATS domain [3]
  fold lower potency (IC50) toward AF9 YEATS than toward ENL YEATS: 4 fold
[4]
  IC50: 63 nM
AF9 YEATS domain [5]
  IC50: 250 nM
[6]
  Kd: 36.3 nM
  kon: 62300 M⁻¹ s⁻¹

## Ac-VYCYK(2Furoyl) [tENL-S1f]
[7]
  Kd: 307 nM
AF9 YEATS domain [8]
  Kd: 3670 nM
[9]
  decrease in qPCR of the ENL target genes HOXA9, MEIS1, MYB and MYC in MOLM-13 cells (endogenous ENL) treated with tENL-S1f at 10 and 50 μM: 30%
  growth of MV4;11 cells (MLL-r leukemia line sensitive to ENL depletion; endogenous ENL) treated with tENL-S1f for 14 days: 50%
AF9 YEATS domain [10]
  fold selectivity for ENL YEATS over AF9: 12 fold
